Data as given in US20240238459A1, “Granzyme-Activatable Membrane-Interacting Peptides and Methods of Use” (priority 2021, published 2024).
Ends that are not written are not given here.

Assays:
granzyme B [1] = target: T1, granzyme B (Homo sapiens, UniProt P10144); assay: Protease specificity of substrate sequence (FIG. 1F); format: biochemical; design: purchased; conditions: vs thrombin, caspase 3, caspase 8, granzyme K, MMP9, C1S; enzymes 5 nM, substrate 60 μM, 37° C., PBS, 1 mM DTT, pH 7.4
Experimental: The substrate sequence FVQWFSKFLGK (SEQ ID NO:3) was assessed for specificity for granzyme B compared to thrombin, caspase 3, caspase 8, granzyme K, MMP9, and C1S at 5 nM concentrations with substrate at 60 μM, 37° C., and buffer of PBS, 1 mM DTT, and pH 7.4.

human erythrocytes = assay: Toxicity assay measuring hemolysis of human erythrocytes; conditions: in vitro, 1 hr at 37° C., hemoglobin release OD 540 nm
Experimental: Blood from healthy anonymous donors was harvested from Trima Leukoreduction chambers (Vitalant, San Francisco CA). Erythrocytes were isolated from the anonymous blood samples. Full-length GRIP B and activated GRIP B were measured for their hemolytic activity on healthy human erythrocytes in triplicate. Aliquots of human erythrocytes were suspended in PBS (pH 7.4) and incubated with serial dilutions of both peptides which were initially solubilized in DMSO. DMSO and 1% Triton X-100 were incubated in parallel as negative and positive controls, respectively. Incubation was for 1 hr at 37° C. After incubation, the samples were centrifuged for 5 min at 2,000×g upon which the supernatant was collected. Supernatant was measured for the release of hemoglobin by the erythrocytes using a BioTek H4 multimode plate reader, monitoring the optical density of the supernatant at a wavelength of 540 nm.

granzyme B [2] = target: T1, granzyme B; assay: In vitro kinetics of quenched fluorogenic peptide proteolysis by GZMB; format: biochemical; conditions: Michaelis-Menten kinetics (FIG. 1D)

T1 sequence (P10144 21-247): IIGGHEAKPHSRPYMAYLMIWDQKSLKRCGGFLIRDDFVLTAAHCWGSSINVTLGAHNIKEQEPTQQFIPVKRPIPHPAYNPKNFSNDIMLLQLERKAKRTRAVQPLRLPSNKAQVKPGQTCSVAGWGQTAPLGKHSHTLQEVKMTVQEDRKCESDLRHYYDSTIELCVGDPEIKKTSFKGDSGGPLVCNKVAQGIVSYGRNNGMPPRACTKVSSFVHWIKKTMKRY

## FVQWFSKFLGK
Granzyme B [1]
  specificity for granzyme B compared to other proteases: highly specific for granzyme B

## FVQWFSKFLGKIEPDVSQVQDPNDQYEPF [GRIP B]
Human erythrocytes
  toxicity toward human red blood cells: not to display toxicity

## IEPDVSQV (ends and bridges not checked) [NH2-K(MCA)IEPDVSQVK(DNP)-COOH]
Granzyme B [2]
  improved catalytic turnover compared to IEPD alone: approximately 2 fold
